This assay has as its target Full-length (FL) BRAF purified from HEK293F cells (UniProt P15056). Nature of the assay: SPR; OpenSPR; His/MBP-NT1-4 or FL-BRAF immobilised on Ni-NTA sensor, KRAS-GMPPNP (GST-tagged or untagged) or GST alone flowed at 30 μL/min for 10 min; 20 mM HEPES pH 7.4, 150 mM NaCl, 0.23% glycerol, 0.05% Tween-20, 1% BSA; 1:1 fit.

Full-length (FL) BRAF purified from HEK293F cells, sequence (P15056 whole entry): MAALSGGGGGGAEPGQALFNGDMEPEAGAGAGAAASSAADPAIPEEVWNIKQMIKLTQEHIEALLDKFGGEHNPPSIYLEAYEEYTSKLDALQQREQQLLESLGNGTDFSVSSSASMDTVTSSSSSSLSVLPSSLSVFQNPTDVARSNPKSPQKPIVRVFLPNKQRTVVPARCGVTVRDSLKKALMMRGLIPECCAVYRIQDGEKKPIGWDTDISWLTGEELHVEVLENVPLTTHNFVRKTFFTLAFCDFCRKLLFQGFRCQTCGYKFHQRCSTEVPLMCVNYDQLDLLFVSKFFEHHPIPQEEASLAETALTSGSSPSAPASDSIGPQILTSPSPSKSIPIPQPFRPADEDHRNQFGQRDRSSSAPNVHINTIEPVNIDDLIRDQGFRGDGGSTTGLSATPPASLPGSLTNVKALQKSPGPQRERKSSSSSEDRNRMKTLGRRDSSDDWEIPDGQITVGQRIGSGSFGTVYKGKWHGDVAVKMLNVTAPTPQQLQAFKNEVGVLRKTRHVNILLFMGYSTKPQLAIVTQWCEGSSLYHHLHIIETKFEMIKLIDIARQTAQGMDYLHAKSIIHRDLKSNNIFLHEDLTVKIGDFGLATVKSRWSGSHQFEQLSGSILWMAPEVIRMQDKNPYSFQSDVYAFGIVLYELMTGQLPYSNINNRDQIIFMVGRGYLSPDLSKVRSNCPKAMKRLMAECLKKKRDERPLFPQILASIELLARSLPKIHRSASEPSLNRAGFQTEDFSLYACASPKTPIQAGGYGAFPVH

“GST-tagged, dimeric full-length KRAS4b (from UniProt P01116-2 1-188) (natural protein)” gave an equilibrium dissociation constant (Kd) of 101 nM.

(Values after publication doi:10.1101/2023.04.24.538112.)
